Experiment [1] concerns the target Human Galectin-3 protein (Acro Biosystems, GA3-H5129) (human) (UniProt P17931). The experiment is described as follows: SPR Biacore T200, antibody captured, Galectin-3 analyte. Background: In SPR one partner is held on a chip, and binding of the other changes the refractive index at the surface.
Experiment [2] shares this target. Description: ELISA, hGal3 coated, competitor hTIM3 (FIG. 24).
The target is the same in experiment [3]. The experiment is described as follows: ELISA, hGal3 coated, antibody 3 ug/mL, competitor hTIM3. For orientation: ELISA stands for enzyme-linked immunosorbent assay.

The Kd is the constant that tells how readily two partners part at equilibrium.

Human Galectin-3 protein (Acro Biosystems, GA3-H5129) (human), sequence (P17931 2-250): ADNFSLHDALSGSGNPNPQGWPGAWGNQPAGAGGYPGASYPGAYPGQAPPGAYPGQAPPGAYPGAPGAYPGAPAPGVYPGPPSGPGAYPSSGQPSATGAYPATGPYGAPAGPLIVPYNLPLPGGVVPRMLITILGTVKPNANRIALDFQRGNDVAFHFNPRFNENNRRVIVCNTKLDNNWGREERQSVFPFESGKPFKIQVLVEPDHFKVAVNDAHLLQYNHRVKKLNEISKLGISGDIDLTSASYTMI

B1: 9H2.2H1 (antibody, from a related filing, V domains shown)
VH: QVQLQQPGAELVGPGSSVKLSCKASGYTFTNYWIHWVKQRPLQGLEWIGNIDPSDSETHYNQKFKDKATLTVDKSSSTAYMQLSSLTSEDSAVYYCARHGYYDYWGQGTTLTVSS
VL: DIVMTQSHKFMSTSVGDRVSITCKASQDVSTAVAWYQQKPGQSPKLLIYWASTRHTGVPDRFTGSGSGTDYTLTISSVQAEDLALYYCQQHYTTPLTFGAGTKLELKR
B1: the Kd in experiment [1] stood at 18.4 nM. The molecule further yielded a reduction of TIM3-GAL3 binding in experiment [2] of under 25%. This molecule yielded a GAL3-TIM3 Blocking @ 3 ug/mL in experiment [3] of 6%.

For the origin of these results see patent US20260234269A1.
